Source: patent US20020068706A1

Tests used:
[1] = biological target: CDK4/cyclin D1 complex (UniProt P11802); experiment: cell-based or functional assay
[2] = biological target: cdc2/cyclin B complex (UniProt P06493); experiment: cell-based or functional assay
cdc2/cyclin B complex, sequence (P06493 whole entry, one chain of several): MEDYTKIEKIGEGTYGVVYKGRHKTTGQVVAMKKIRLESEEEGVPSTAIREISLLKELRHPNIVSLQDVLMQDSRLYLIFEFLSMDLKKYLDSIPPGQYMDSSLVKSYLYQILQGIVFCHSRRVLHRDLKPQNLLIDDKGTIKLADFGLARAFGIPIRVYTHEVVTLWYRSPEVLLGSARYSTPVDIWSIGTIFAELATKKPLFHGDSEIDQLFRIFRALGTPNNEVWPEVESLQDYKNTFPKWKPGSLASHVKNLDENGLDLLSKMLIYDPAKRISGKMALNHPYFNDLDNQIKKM

CDK4/cyclin D1 complex, sequence (P11802 whole entry, chain 1 of 2): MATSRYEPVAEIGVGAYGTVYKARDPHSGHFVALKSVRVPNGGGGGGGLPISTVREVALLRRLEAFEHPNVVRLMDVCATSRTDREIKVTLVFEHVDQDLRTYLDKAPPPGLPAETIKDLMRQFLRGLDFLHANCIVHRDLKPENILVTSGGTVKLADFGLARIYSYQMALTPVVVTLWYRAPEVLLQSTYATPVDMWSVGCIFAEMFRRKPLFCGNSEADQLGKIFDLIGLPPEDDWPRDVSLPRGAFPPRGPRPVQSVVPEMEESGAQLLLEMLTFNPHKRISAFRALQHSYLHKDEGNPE
CDK4/cyclin D1 complex, sequence (P24385 whole entry, chain 2 of 2, further chain): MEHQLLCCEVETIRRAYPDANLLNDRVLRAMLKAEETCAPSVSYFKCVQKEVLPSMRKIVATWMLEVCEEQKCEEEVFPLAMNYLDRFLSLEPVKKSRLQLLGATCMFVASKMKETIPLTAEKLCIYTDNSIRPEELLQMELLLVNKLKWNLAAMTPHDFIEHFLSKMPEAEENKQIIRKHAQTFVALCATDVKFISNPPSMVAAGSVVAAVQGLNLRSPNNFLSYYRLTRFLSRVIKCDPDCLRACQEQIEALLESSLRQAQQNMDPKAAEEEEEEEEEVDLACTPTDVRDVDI

IC50 of in vitro kinase assay (32P incorporation into Gst-Rb) [1]: 63 nM | IC50 of in vitro kinase assay (32P incorporation into Gst-Rb) [2]: 20 nM
Substance: p27 (from UniProt P46527 1-198)
